The labels stand for the following.
B1: Metabotropic glutamate receptor 1 (Rattus norvegicus (Rat)), P23385 (parent)
chain: MVRLLLIFFPMIFLEMSILPRMPDRKVLLAGASSQRSVARMDGDVIIGALFSVHHQPPAEKVPERKCGEIREQYGIQRVEAMFHTLDKINADPVLLPNITLGSEIRDSCWHSSVALEQSIEFIRDSLISIRDEKDGLNRCLPDGQTLPPGRTKKPIAGVIGPGSSSVAIQVQNLLQLFDIPQIAYSATSIDLSDKTLYKYFLRVVPSDTLQARAMLDIVKRYNWTYVSAVHTEGNYGESGMDAFKELAAQEGLCIAHSDKIYSNAGEKSFDRLLRKLRERLPKARVVVCFCEGMTVRGLLSAMRRLGVVGEFSLIGSDGWADRDEVIEGYEVEANGGITIKLQSPEVRSFDDYFLKLRLDTNTRNPWFPEFWQHRFQCRLPGHLLENPNFKKVCTGNESLEENYVQDSKMGFVINAIYAMAHGLQNMHHALCPGHVGLCDAMKPIDGRKLLDFLIKSSFVGVSGEEVWFDEKGDAPGRYDIMNLQYTEANRYDYVHVGTWHEGVLNIDDYKIQMNKSGMVRSVCSEPCLKGQIKVIRKGEVSCCWICTACKENEFVQDEFTCRACDLGWWPNAELTGCEPIPVRYLEWSDIESIIAIAFSCLGILVTLFVTLIFVLYRDTPVVKSSSRELCYIILAGIFLGYVCPFTLIAKPTTTSCYLQRLLVGLSSAMCYSALVTKTNRIARILAGSKKKICTRKPRFMSAWAQVIIASILISVQLTLVVTLIIMEPPMPILSYPSIKEVYLICNTSNLGVVAPVGYNGLLIMSCTYYAFKTRNVPANFNEAKYIAFTMYTTCIIWLAFVPIYFGSNYKIITTCFAVSLSVTVALGCMFTPKMYIIIAKPERNVRSAFTTSDVVRMHVGDGKLPCRSNTFLNIFRRKKPGAGNANSNGKSVSWSEPGGRQAPKGQHVWQRLSVHVKTNETACNQTAVIKPLTKSYQGSGKSLTFSDASTKTLYNVEEEDNTPSAHFSPPSSPSMVVHRRGPPVATTPPLPPHLTAEETPLFLADSVIPKGLPPPLPQQQPQQPPPQQPPQQPKSLMDQLQGVVTNFGSGIPDFHAVLAGPGTPGNSLRSLYPPPPPPQHLQMLPLHLSTFQEESISPPGEDIDDDSERFKLLQEFVYEREGNTEEDELEEEEDLPTASKLTPEDSPALTPPSPFRDSVASGSSVPSSPVSESVLCTPPNVTYASVILRDYKQSSSTL

The variants in the assay derive from B1. The following applies: with pp1g_rat Ppp1cc.
S892A: the “effect of a mutation on the interaction” value is recorded as “decreasing interaction”.

Source of the values: IntAct's records for PubMed 14519764.
